# Data taken from US5543312A, “Pastuerella haemolytica glycoprotease gene and the purified enzyme” (priority 1991, dated 1996).
# B1: CD45/leucocyte common antigen: O-sialoglycoprotein cell surface antigen, leukocyte common antigen (protein)
# chain: QSPTPSPTGLTTAKMPSVPLSSDPLPTHTTAFSPASTFERENDFSETTTSLSPDNTSTQVSPDSLDNASAFNTTGVSSVQTPHLPTHADSQTPSAGTDTQTFSGSAANAKLNPTPGSNAISDVPGERSTASTFPTDPVSPLTTTLSLAHHSSAALPARTSNTTITANTSDAYLNASETTTLSPSGSAVISTTTIATTPSKPTCDEKYANITVDYLYNKETKLFTAKLNVNENVECGNNTCTNNEVHNLTECKNASVSISHNSCTAPDKTLILDVPPGVEKFQLHDCTQVEKADTTICLKWKNIETFTCDTQNITYRFQCGNMIFDNKEIKLENLEPEHEYKCDSEILYNNHKFTNASKIIKTDFGSPGEPQIIFCRSEAAHQGVITWNPPQRSFHNFTLCYIKETEKDCLNLDKNLIKYDLQNLKPYTKYVLSLHAYIIAKVQRNGSAAMCHFTTKSAPPSQVWNMTVSMTSDNSMHVKCRPPRDRNGPHERYHLEVEAGNTLVRNESHKNCDFRVKDLQYSTDYTFKAYFHNGDYPGEPFILHHSTSYNSKALIAFLAFLIIVTSIALLVVLYKIYDLHKKRSCNLDEQQELVERDDEKQLMNVEPIHADILLETYKRKIADEGRLFLAEFQSIPRVFSKFPIKEARKPFNQNKNRYVDILPYDYNRVELSEINGDAGSNYINASYIDGFKEPRKYIAAQGPRDETVDDFWRMIWEQKATVIVMVTRCEEGNRNKCAEYWPSMEEGTRAFGDVVVKINQHKRCPDYIIQKLNIVNKKEKATGREVTHIQFTSWPDHGVPEDPHLLLKLRRRVNAFSNFFSGPIVVHCSAGVGRTGTYIGIDAMLEGLEAENKVDVYGYVVKLRRQRCLMVQVEAQYILIHQALVEYNQFGETEVNLSELHPYLHNMKKRDPPSEPSPLEAEFQRLPSYRSWRTQHIGNQEENKSKNRNSNVIPYDYNRVPLKHELEMSKESEHDSDESSDDDSDSEEPSKYINASFIMSYWKPEVMIAAQGPLKETIGDFWQMIFQRKVKVIVMLTELKHGDQEICAQYWGEGKQTYGDIEVDLKDTDKSSTYTLRVFELRHSKRKDSRTVYQYQYTNWSVEQLPAEPKELISMIQVVKQKLPQKNSSEGNKHHKSTPLLIHCRDGSQQTGIFCALLNLLESAETEEVVDIFQVVKALRKARPGMVSTFEQYQFLYDVIASTYPAQNGQVKKNNHQEDKIEFDNEVDKVKQDANCVNPLGAPEKLPEAKEQAEGSEPTSGTEGPEHSVNGPASPALNQGS
# modifications: O-sialoglycosylated
# B2: glycophorin A: major sialoglycopeptide of the human erythrocyte membrane (protein, UniProt P02724 20-150, looked up)
# Glycophorin-A: LSTTEVAMHTSTSSSVTKSYISSQTNDTHKRDTYAATPRAHEVSEISVRTVYPPEEETGERVQLAHHFSEPEITLIIFGVMAGVIGTILLISYGIRRLIKKSPSDVKPLPSPDTDVPLSSVEIENPETSDQ
# B3: CD34: O-sialoglycoprotein cell surface antigen, primitive bone marrow stem cell antigen (protein, UniProt P28906 32-385, looked up)
# Hematopoietic progenitor cell …: SLDNNGTATPELPTQGTFSNVSTNVSYQETTTPSTLGSTSLHPVSQHGNEATTNITETTVKFTSTSVITSVYGNTNSSVQSQTSVISTVFTTPANVSTPETTLKPSLSPGNVSDLSTTSTSLATSPTKPYTSSSPILSDIKAEIKCSGIREVKLTQGICLEQNKTSSCAEFKKDRGEGLARVLCGEEQADADAGAQVCSLLLAQSEVRPQCLLLVLANRTEISSKLQLMKKHQSDLKKLGILDFTEQDVASHQSYSQKTLIALVTSGALLAVLGITGYFLMNRRSWSPTGERLGEDPYYTENGGGQGYSSGPGTSPEAQGKASVNRGAQENGTGQATSRNGHSARQHVVADTEL
# B4: CD43/leucosialin: O-sialoglycoprotein cell surface antigen, leukosialin/sialophorin (protein)
# chain: STTAVQTPTSGEPLVSTSEPLSSKMYTTSITSDPKADSTGDQTSALPPSTSINEGSPLWTSIGASTGSPLPEPTTYQEVSIKMSSVPQETPHATSHPAVPITANSLGSHTVTGGTITTNSPETSSRTSGAPVTTAASSLETSRGTSGPPLTMATVSLETSKGTSGPPVTMATDSLETSTGTTGPPVTMTTGSLEPSSGASGPQVSSVKLSTMMSPTTSTNASTVPFRNPDENSRGMLPVAVLVALLAVIVLVALLLLWRRRQKRRTGALVLSRGGKRNGVVDAWAGPAQVPEEGAVTVTVGGSGGDKGSGFPDGEGSSRRPTLTTFFGRRKSRQGSLAMEELKSGSGPSLKGEEEPLVASEDGAVDAPAPDEPEGGDGAAP
# modifications: O-sialoglycosylated
# Columns and labels:
# [1] = system: P. haemolytica glycoprotease; test: Cleavage of cell surface antigens of surface-125I-iodinated KG1a cells, immunoprecipitation and SDS-PAGE; type: cell-based
# Text: In our previous work, we have concentrated on the cleavage of human erythrocyte glycophorin A by the P. haemolytica glycoprotease Udoh et al. 1986. Univ. of Guelph; Abdullah et al. 1988. Proc. Canad. Fed. Biol. Socs.; Abdullah et al. 1990. Biochem. Soc. Trans. This substrate is well-characterized erythrocyte surface O-sialoglycoprotein and is readily available for biochemical analysis. However, it is clear that the physiological targets of this enzyme are not erthrocyte antigens but are probably O-sialoglycoproteins on the surfaces of leukocytes or endothelial cells. SDS-PAGE analysis of immunoprecipitations performed with specific monoclonal antibodies on lysates of surface-^125 I-iodinated KG1a cells, a primitive myeloid/T-lymphois stem cell line Koeffler et al. 1977. Science 200, have shown that the O-sialoglycoprotein cell surface antigens CD34 Civin et al. 1989. Leucocyte Typing IV, Oxford Univ. Press. CD43/leucosialin Killeen et al. 1987. EMBO J.; Pallant et al. 1989. PNAS, CD44/lyaluronic acid receptor Stamenkovic et al. 1989. Cell; Aruffo et al. 1990. Cell and CD45/leucocyte common antigen Thomas et al. 1989. Annu. REv. Immunol.; Pulido et al. 1989. J. Immunol. are all cleaved by the glycoprotease. Although the glycoprotease-sensitive structures contain some N-linked glycans they are all extensively glycosylated with O-linked carbohydrates. However, the N-linked glycoproteins CD18/11^a, 11^b, 11^c /leukocyte integrins Arnaout et al. 1990. Blood, CD71/transferrin receptor Shae et al. 1986. Cell, HLA class I Owen et al. 1980. J. Biol. Chem., and 8A3 antigens Sutherland et al. Blood (in press, Jan. 1991), which lack O-sialo-residues, were resistant to the action of the enzyme.
# [2] = molecular target: P. haemolytica A1 protease (Mannheimia haemolytica, UniProt P36175); type: biochemical; details: FIG. 9; SDS-PAGE autoradiography
# [3] = system: P. haemolytica glycoprotease; test: Removal of CD34 epitopes on KG1/KG1a cells (fluorescence microscopy, flow cytometry, western blotting); type: cell-based
# Text: Blood; Katz et al. 1985. Leuk. Res. which detects a sialic acid-dependent epitope on this glycoprotein Watt et al. 1987. Leukaemia; and Sutherland et al. 1988. Leukaemia. We have assessed the ability of this enzyme to remove CD34 epitopes recognized by all seven CD34 antibodies designated by the 4th Leucocyte Antigen Workshop Civin et al. 1989. Leukocyte Typing IV, Oxford Univ. Press. We have shown by fluorescence microscopy, quantitative flow cytometry and western blotting, that sialic acid-dependent epitopes, recognized by antibodies B1.3C5, MY10 Civin et al. 1984. J. Immunol. and 12.8 Andrews et la. 1986. […] Leukaemia and 188.24 Sutherland et al. Leukaemia. In contrast, the sialic acid-independent epitopes by 115.2 Andrew et al. 1986. Blood and TUK3 Civin et al. 1989. Leucocyte Typing IV, Oxford Univ. […] As previously for the cleavage of glycophorin, the enzyme requires the presence of sialyted residues on its substrate and the prior treatment of KGla cells with neuraminidase reduced the ability of the glycoprotease to cleave the ICH3 and 188.24 epitopes Sutherland et al. 1990. Blood (in press). The differential sensitivity of certain CD34 epitopes to cleavage with either neuraminidase and/or glycoprotease establishes 3 classes of epitopes:(Class 1) those like MY 10,B1.3C5 and 12.8 which are removed both by neuraminidase and by the glycoprotease;(Class II) those like ICH3 and 188.24 which are removed only by the glycoprotease; (Class III) those like TUK3 and 115.2
molecule,measurement,setting,value
B1,Cleavage of cell surface antigen by the glycoprotease,[1],cleaved
B2,Hydrolysis of [125I]-glycophorin A forms by P. haemolytica A1 pH 4.5 fraction,[2],total hydrolysis
B3,Cleavage of cell surface antigen by the glycoprotease,[1],cleaved
same,"Removal of sialic acid-dependent epitopes recognized by antibodies B1.3C5, MY10 and 12.8",[3],totally removed
same,Removal of sialic acid-independent epitopes recognized by ICH3 and 188.24,[3],totally removed
same,Sensitivity of sialic acid-independent epitopes recognized by 115.2 and TUK3,[3],totally resistant
same,"Cleavage of CD34, loss of reactivity with anti-CD34 monoclonal antibody B1.3C5",[3]; KG1 cells,readily cleaved
B4,Cleavage of cell surface antigen by the glycoprotease,[1],cleaved
